Test results published in article PMC8764033, “Single-molecule analysis of specificity and multivalency in binding of short linear substrate motifs to the APC/C” (Nature Communications, 2022).
Several values for one entry are separate records, joined by “and”; a condition that tells them apart may be missing. Equal entries are not always repeated. Entries after “also recorded” stand apart in the source; their conditions may differ.

Assays:
[1] = system: APC/C^Cdh1; experiment: Ensemble binding of radiolabeled Hsl1 fragments to APC/C^Cdh1 on magnetic beads; parameters: species or system yeast
From the text: Supplementary Fig. 2: APC/C activity with tagged substrates a, Methods for analysis of APC/C activity and substrate binding. b, APC/C ubiquitylation assay with ra d io lab e le d f u ll-len g th yS e cu rin , co mpa rin g wild-type APC/CCdh1 an d AP C/ CCdh1 with a GFP ta g o n A p c1 . c, Comparison of activities with APC/CCdh1, using either wild-type Cdh1 or Cdh1 with the N-terminal 2XStrep-Tag II. d, Comparison of activities with APC/CCdh1 and the Hsl1 fragment (667-872) with and without the C-terminal Halo tag. e, Binding of radiolabeled Hsl1 fragments to yeast APC/CCdh1 immobilized on magnetic beads. First lane (Inp, input) indicates the amount of labeled protein added to the beads prior to washing, second lane (+) indicates amount bound, and third lane (-) indicates background binding in absence of APC/CCdh1. f, Ubiquitylation of Halo-tagged Hsl1 fragment with APC/CCdh1 an d A P C/ CCdc20. Experiments we re pe rfo rme d o n ce (b, c) or twice ( d-f). Source data are provided as a Source Dat a file.
(1 picture or pasted object on this page, not shown here)

[2] = system: APC/C^Apc10-4A, Cdh1; experiment: SMOR assay, yeast APC/C^Apc10-4A, Cdh1; type: binding, Saccharomyces cerevisiae
Protocol: (§1) Yeast strains were derivatives of W303 and are listed in Supplementary Table 2. For APC/C purification, we used a strain carrying Cdc16-TAP and lacking Cdh1 (DOM1126); in most experiments, the strain also carried Apc1-GFP (NHY13). Yeast were grown in YPD media to OD600 = 0.8, collected and flash-frozen. Cells were lysed by bead beating in lysis buffer A (50 mM HEPES pH 7.5, 150 mM KCl, 10% glycerol, 0.2% Triton X-100, 63 µM B-glycerophosphate, 48 µM sodium fluoride, 1 µg ml^−1 pepstatin A, 1 µg ml^−1 leupeptin, 1 µg ml^−1 aprotinin, 1 mM PMSF, 1 mM DTT, 0.5 mM EDTA) and APC/C was purified using magnetic IgG beads. The beads were washed using wash buffer A (20 mM HEPES pH 7.5, 150 mM KCl, 10% Glycerol, 0.05% Triton X-100). After incubation with purified Cdh1 or Cdc20, the APC/C was cleaved off the beads with TEV protease in wash buffer A with 0.05% Tween-20 (for single-molecule studies) or 0.05% Triton X-100 (for ensemble assays such as ubiquitylation) and used immediately.
(§2) For all SMOR experiments, 24 × 50 mm high precision glass coverslips (Bioscience Tools) and drilled microscope slides were passivated with a combination of PEG and PEG-biotin (coverslips) or PEG only (slides) following a previously published protocol for SiMPull[31]. Reaction chambers (~20 µl) were created using double-sided tape and epoxy. Protein was immobilized on the surface with 0.2 mg ml^−1 NeutrAvidin in buffer C (20 mM HEPES pH 7.5, 150 mM KCl, 10% glycerol, 0.05% Tween-20, 1 mM DTT). Excess NeutrAvidin was washed away and incubated with either biotin-conjugated mouse monoclonal anti-Strep-Tag II antibody (LSBio, Cat. No. LS-C203632-100) or biotin-conjugated rabbit polyclonal anti-GFP antibody (Rockland, Cat. No. 600-406-215) diluted in buffer C + BSA (0.1 mg ml^−1; Molecular Biology Grade Bovine Serum Albumin). Activator WD40 and activated APC/C (typically 50 µl containing about 65 ng APC/C, of which only a small fraction is immobilized on the glass) were immobilized using anti-Strep-Tag II, while APC/C alone was immobilized with anti-GFP. SMOR results were similar when performed in the buffer (wash buffer B) used in polarization anisotropy.
(§3) To capture dynamic protein–protein interactions, dye-labeled substrate diluted in buffer C + BSA was added to the chamber containing immobilized proteins. Interactions were imaged by TIRF microscopy as described below. For optimal signal-to-noise ratio, peptide concentration was no greater than 1 nM. […]
(§4) Microscopy was performed with a Nikon Eclipse TE2000-E with Perfect Focus with a 100 × 1.49na oil, Apo TIRF DIC N2, 0.13-0.2, WD0.12 objective. Movies were recorded using the Andor iXon DU-897E-CSO. […]

[3] = system: APC/C^Apc10-4A, Cdc20; experiment: SMOR assay, yeast APC/C^Apc10-4A, Cdc20; type: binding, Saccharomyces cerevisiae
Protocol: as §1, §2, §3, §4

[4] = Supplementary Table 1, replicate 1 (movie listed first)
[5] = Supplementary Table 1, replicate 2 (movie listed second)
[6] = representative of two independent experiments, ± SE, ligand ≤1 nM, buffer C + BSA

Sequence of APC/C^Apc10-4A, Cdh1 (P53197 whole entry): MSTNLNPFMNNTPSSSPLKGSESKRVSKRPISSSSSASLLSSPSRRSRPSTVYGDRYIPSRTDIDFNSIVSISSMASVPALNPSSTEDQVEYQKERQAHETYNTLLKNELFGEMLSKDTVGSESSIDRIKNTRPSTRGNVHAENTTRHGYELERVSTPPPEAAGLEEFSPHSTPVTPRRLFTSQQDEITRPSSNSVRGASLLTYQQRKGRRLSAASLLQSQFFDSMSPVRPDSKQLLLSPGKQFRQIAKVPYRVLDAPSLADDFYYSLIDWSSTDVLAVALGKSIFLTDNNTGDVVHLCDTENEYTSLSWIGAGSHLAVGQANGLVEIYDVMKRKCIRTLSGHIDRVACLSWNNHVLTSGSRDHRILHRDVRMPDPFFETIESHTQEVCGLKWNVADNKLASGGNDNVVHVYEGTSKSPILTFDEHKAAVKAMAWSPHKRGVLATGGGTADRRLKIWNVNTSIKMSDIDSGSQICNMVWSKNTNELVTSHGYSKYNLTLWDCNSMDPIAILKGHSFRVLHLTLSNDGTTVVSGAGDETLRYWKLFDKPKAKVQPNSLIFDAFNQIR
Sequence of APC/C^Apc10-4A, Cdc20 (P26309 whole entry): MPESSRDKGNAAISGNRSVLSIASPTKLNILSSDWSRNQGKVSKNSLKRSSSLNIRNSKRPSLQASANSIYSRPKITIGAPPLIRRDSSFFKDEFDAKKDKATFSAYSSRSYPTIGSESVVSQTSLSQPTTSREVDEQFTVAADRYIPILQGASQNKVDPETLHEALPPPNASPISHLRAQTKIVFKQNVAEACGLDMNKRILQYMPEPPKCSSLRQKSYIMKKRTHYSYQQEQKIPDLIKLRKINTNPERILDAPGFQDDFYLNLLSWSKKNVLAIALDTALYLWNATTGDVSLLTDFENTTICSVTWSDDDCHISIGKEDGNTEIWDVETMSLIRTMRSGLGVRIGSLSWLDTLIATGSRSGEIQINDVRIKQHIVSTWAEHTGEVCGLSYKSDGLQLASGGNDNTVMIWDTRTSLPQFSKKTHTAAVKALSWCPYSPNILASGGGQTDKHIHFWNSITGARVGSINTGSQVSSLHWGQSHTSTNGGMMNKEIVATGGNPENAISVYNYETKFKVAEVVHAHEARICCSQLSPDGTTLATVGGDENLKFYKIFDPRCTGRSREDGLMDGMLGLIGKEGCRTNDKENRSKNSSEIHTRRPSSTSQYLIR

B1: Hsl1^Halo KEN & D: Hsl1 fragment (amino acids 667–872) with C-terminal HaloTag, JF549-labeled (protein)
chain: QNSASKRSLYSLQSISKRSLNLNDLLVFDDPLPSKKPASENVNKSEPHSLESDSDFEILCDQILFGNALDRILEEEEDNEKERDTQRQRQNDTKSSADTFTISGVSTNKENEGPEYPTKIEKNQFNMSYKPSENMSGLSSFPIFEKENTLSSSYLEEQKPKRAALSDITNSFNKMNKQEGMRIEKKIQREQLQKKNDRPSPLKPIQ
modifications: JF549 or JF646 dye covalently bound to the HaloTag; left off: HaloTag, C-terminal, kept | TAP, C-terminal, cleaved
notes: Hsl1 fragment (amino acids 667–872) with C-terminal HaloTag, JF549-labeled
[1]
  binding to APC/C (in words): HaloTag does not affect ubiquitylation or binding
[2]
  binding (in words): This boost in affinity was not seen in the Apc10-4A mutant
[2]; [4]
  Dwell Time: 42.881 ± 2.489 s
[2]; [5]
  Dwell Time: 75.919 ± 3.159 s
[2]; [6]
  mean dwell time: 75.9 ± 3 s and 75.9 s
[3]
  binding (in words): the Apc10-4A mutations only slightly reduced Hsl1 dwell time with APC/C^Cdc20; also recorded: only slightly reduced by mutation of Apc10
[3]; [4]
  Dwell Time: 0.449 ± 0.014 s
[3]; [5]
  Dwell Time: 0.372 ± 0.027 s
[3]; [6]
  mean dwell time: 0.449 s
